The nature of the data set: yeast display, Sf9 membrane polyspecificity reagent, FACS + sequencing; frameworks hold sequencing errors. The method in brief:
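Synthetic nanobody libraries on Saccharomyces cerevisiae BJ5465 were galactose-induced for 36–48 hours, stained 1 hour at 4 °C with 10% biotinylated, detergent-solubilized Sf9 membrane reagent and enriched on streptavidin microbeads. FACS then separated cells into low and high (top ~1%) gates by anti-HA (expression) and streptavidin (reagent binding) fluorescence. Genes were colony-PCR amplified, MiSeq 2 × 250 sequenced and CDR-length filtered. A clone's polyreactivity label is that of its gate of origin.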
“QVQLVESGGGLVQAGGSLRLSCASSGFTLYANAMGGYRQAPGKERELVADISESGSSTSYADSVKGRFTISRDNAKNTVYLQMKSLKPEDTAVYYCYDYWVQGTQVTVSS”: the “polyreactivity (PSR sort gate)” value is on record as “low polyreactivity”.
For the sequence “QVQLVESGGGLVQAGGSLRLSCASSGFTSWDNDMGWYRQAPGKERELVAAISRGGSTNYADSVKGRFTISRDNAKDTVYLQMNSLKPVDTAVYYCNADFAPWDKQDYPYDYDYWGQGTQVTVSS”, the “polyreactivity (PSR sort gate)” value was “low polyreactivity”.
Consider “QVQLVESGGGLVQAGGSLRLSCASSGFTYGTNAMVWYRQAPGKERELVAAISSRGGSTYYADSVKGRFTISRDNAKNTVYLLMNSLKPEDTAVYYCARRVARRQHEYGYWGQGTQVTVSS”, for which the “polyreactivity (PSR sort gate)” value is recorded as “high polyreactivity”.
On to “QVQLVESGGGLVQAGGSLRLSCASSGGIFASNVMGWYRQAPGKERELVAAISSITGSTYYADSVKGRFTISRDNAKNTVYLQMNSLKPEDTAVYYCAAYVQFAKIRFDYWGQGTQVTVSS”, for which the “polyreactivity (PSR sort gate)” value was “high polyreactivity”.
Take “QVQLVESGGGLVQAGGSLRLSCASSGGTLFQNAMGWYRQAPGKESELVATIRVSGGITYYADSVKGRFTISRDNAKNTVYFQMNSLNPEDTAVYYCAKDSADSRAVGDVMTFDYWGQGTQVTVSS”: the “polyreactivity (PSR sort gate)” value was “low polyreactivity”.
The value for “QVQLVESGGGLVQAGGSLRLSCASSGITFAKNAMGRYRQAPGKERELVAVITNTNYADSVKGRFTISRDNAKNTVYLQMNSLKPEDTAVYYCAVDGYGWYFARSWLRYYYWGQGTQVTVSS” was “low polyreactivity”.
In the case of “QVQLVESGGGLVQAGGSLRLSCASSGITFRRYTMVWYRQAPGKERELVAAISRIGGSTYYADSVKGRFTISRDNAKNTVYLQMNSLKPEDTAVYYCATYYGGSGYDYWGQGTEVTVSS” it was “high polyreactivity”; in that of “QVQLVESGGGLVQAGGSLRLSCASSGITLRYYAMGWYRQAPGKERELVAAISSGGRTKYADSVKGRFTISRDNAKNTVYLQMNSLKPENTAVSYCGARKPYVTHTIDVLQAHDYWGQGTQVTVSS”, “high polyreactivity”.
In the case of “QVQLVESGGGLVQAGGSLRLSCASSGLIFKKYTIGWYRQGPGKERELVASISKSGGSTYYADSVKGRFTISRDNAKNTVYLQMNSLNPEDTAVYYCNSVNHYIGFDYWGQGTQVTVSS” it was “low polyreactivity”; in that of “QVQLVESGGGLVQAGGSLRLSCASSGLIFRVYNMGWYRQAPGKERELVAAITGRGGRTYYADSVKGRFTISRDNAKNTVYLQMNSLKPEDTSVYYCATGGRFQQAAYTGFNYWGQGTQVTVSS”, “high polyreactivity”.
In the case of “QVQLVESGGGLVQAGGSLRLSCASSGLIFWKYAMVWYRQAPGKERELVAAIRKSVGSTYYADSVKGRFTISRDNAKNTVFLQMNSLKPEDTAVYFCAAVYAGVGSQVKPDYCGQGTQVTVSS”, the “polyreactivity (PSR sort gate)” value is on record as “high polyreactivity”.
In the case of “QVQLVESGGGLVQAGGSLRLSCASSGLTFWRYVMGWYRQAPGKESELVATISIGGSTNYADSVKGRFTISRDNAKNTVYLQMNSLKPEDTAVYYCAAKFRGDVFPYYYWGQGTQVTVSS” it was “high polyreactivity”; in that of “QVQLVESGGGLVQAGGSLRLSCASSGPIIFAYAMGWYRQAQGKEREFVAAISDNDGSTYYADSVKGRFTISRDNAKNSVYLQMNSLKPEDTAVYYCNADLGYVYDYWGQGTQVTVSS”, “low polyreactivity”.
In the case of “QVQLVESGGGLVQAGGSLRLSCASSGRICGYYAMGLYRQAPGKERELVAAITSGGSTYYADSVKGRFTISRDNEKNTVYFQMKSLKPEDTAVYFCNKVTRYSPYDYWGQGTQVTVSS” it was “high polyreactivity”; in that of “QVQLVESGGGLVQAGGSLRLSCASSGRIFGPNAMGWYRQAPGKERELVAAITSGGRTKYADSVKGRFTISRDNAKNTVYLQMNSLKPEDTAVYYCATTAQYYWGQGTQVTVSS”, “high polyreactivity”.
As to “QVQLVESGGGLVQAGGSLRLSCASSGRIFHVYAMGWYRQAPGKERELVADITWSGGSTYYADSVKGRFTISRDNAKNTVYLQMNSLKPEDTAVYYCAASVLYGRHYSYGYWGQGTQVTVSS”, the “polyreactivity (PSR sort gate)” value is on record as “high polyreactivity”.
In the case of “QVQLVESGGGLVQAGGSLRLSCASSGRIFTWYAMGWYRQAPGKERELVATISSGGSTNYADSVKGRFTISRDNAKNTVYLHMNSKKPEDTAVYYCAARRFFYRYYYKSDYWGQGTQVTVSS”, the “polyreactivity (PSR sort gate)” value is reported as “high polyreactivity”.
The value for “QVQLVESGGGLVQAGGSLRLSCASSGRIFYPNAMGWYRQAPGIERELVAAISSRGGSTYYADSVKGRFTISRDNAKNTVYLQMNSLKPEDTAVYYCNRVYYTIGYDYWGQGTQVSVSS” was “high polyreactivity”; that for “QVQLVESGGGLVQAGGSLRLSCASSGRISYRNAMGWYRQAPGKERELVAAISSSGDSTYYADAVKGRFTISRDNAKNTVYLQMNSLKPEDTAVYYCAARHSAVYYGYHRYYYWGQGTQVTVSS” was “high polyreactivity”.
In the case of “QVQLVESGGGLVQAGGSLRLSCASSGRIYVYTMGWYRQAPGKERELVATITRSGGSTYYADSVKGRFTISRDNAKNTVYLQMNSLKPEDTAVYYCNAVGRFTPYSSRREYDYWGQGTQVTVSS” it was “low polyreactivity”.
The value for “QVQLVESGGGLVQAGGSLRLSCASSGRTFGTNTMGWYRQAPGKERELVAAISRSGVRTYYADSVKGRFTISRDNAKNTVYLQMKSLKAEDTAVYYCATDYKVHGFDYWGQGTQVSVSS” was “high polyreactivity”; that for “QVQLVESGGGLVQAGGSLRLSCASSGRTFPAYVMGWYREAPGKERDLVAAISRGGSTYYADSVKGRFTISRDNAKNTVYFQMNSLKPEDTAVFYCAARWSYSRYTGNDYSRLGKFYYWGQGTQVTVSS” was “high polyreactivity”; that for “QVQLVESGGGLVQAGGSLRLSCASSGRTFRVNAMVRYRHAPGKERELFAAITYTGGSTYYADSVKGRFTISRDNAKNTVYLQMNSLKPEDTAVYYCAARITSPRASSRGFYYWGQGTQVTVSS” was “high polyreactivity”.
With “QVQLVESGGGLVQAGGSLRLSCASSGRTFWFYTMGWYRQAPGKERELVAAISSGGSTNYADSVKGRFTISRDNAKNTVYLQMNSLKPEDTAVYYCNKPPPNRGRYDYWGQGTQVTVSS”, the “polyreactivity (PSR sort gate)” value is “low polyreactivity”.
With “QVQLVESGGGLVQAGGSLRLSCASSGRTFYRNAMGWYRQAPGKERELVAAIRGSGSSTYYADSVKGRFTISRDNAKNSVYLQMKSLKQEDTAVYYCAADYINYNGYARYYFWGQGTQVTVSS”, the “polyreactivity (PSR sort gate)” value is on record as “high polyreactivity”.
Take “QVQLVESGGGLVQAGGSLRLSCASSGRTFYRNAMGWYRQAPGKERELVAAITSGGSTYYADSVKGRFTISRDNAKNTVYLQMNSLKPEDNAVYYCAKRIGWVPSRSWTPAFWGQGTQVNVSS”: the “polyreactivity (PSR sort gate)” value was “low polyreactivity”.
In the case of “QVQLVESGGGLVQAGGSLRLSCASSGRTIGVYAMGWYRQAPGKERELVAAISWSGGTTYYADSVKGRFTISRDNAKNTVYLQMNSLKPEDTAVYYCAADSYTEVDYWGQGTQVTVSS”, the “polyreactivity (PSR sort gate)” value is on record as “low polyreactivity”.
For the sequence “QVQLVESGGGLVQAGGSLRLSCASSGSIFAFNTLGWYRQAPGKERELVAAINSGGSTYYADSVKGRFTISRDNAKNTVYLQMNSLKPEDTAVYYCNARSYGIVVEYDYWGQGTQVTVSS”, the “polyreactivity (PSR sort gate)” value was “low polyreactivity”.
In the case of “QVQLVESGGGLVQAGGSLRLSCASSGSIFDFNAMGWYRQAPGKERELVATIRYSGGSTYYADSVKGRFTISRDNAKNTVYLQMNSLKPVDTAVYYCAADPDWTHWFAYYYHYGYWGQGTQVTVSS”, the “polyreactivity (PSR sort gate)” value is “low polyreactivity”.
For the sequence “QVQLVESGGGLVQAGGSLRLSCASSGSIFDVNAMGWYRPAPGKERELVAAISQRGTRTYYADSVKGSFTISRDNAKNTVYLQMNSLKPEDTAVYYCNRGGWRQYDSWGQGSQVTVSS”, the “polyreactivity (PSR sort gate)” value is “high polyreactivity”.
